Publication PMC7141136, “Ohr and OhrR Are Critical for Organic Peroxide Resistance and Symbiosis in Azorhizobium caulinodans ORS571”
One block for each molecule: values may come before it.

Columns and labels:
[1] = biological target: OhrR (AZC_3555) of Azorhizobium caulinodans ORS571, 6×His-tagged recombinant protein (Azorhizobium caulinodans ORS571); test: non-reducing SDS-PAGE; purified OhrR oxidised with 0.1 mM CuOOH for 10 min, then non-reducing SDS-PAGE; covalent dimer
[2] = biological target: OhrR^C121S (Azorhizobium caulinodans ORS571); test: as above
OhrR = biological target: T1, OhrR (Azorhizobium caulinodans ORS571, UniProt A8IEZ4 1-144); test: EMSA; reduced (2.5 mM DTT in buffer); dose-dependent; 50 mM Tris-HCl pH 8.3, 0.25 M KCl, 2.5 mM DTT, 5 mM MgCl2, 0.05 ug/mL poly(dI-dC), 2.5 mM EDTA, 1% glycerol; 20 nM DNA, 20 uL, 20 min, room temperature; 6% native PAGE in 0.5x TBE; conditions: protein: recombinant; tags: N-terminal 6xHis (pET-28a); chain copies: 2; label: none (GelRed stain)
T1 sequence: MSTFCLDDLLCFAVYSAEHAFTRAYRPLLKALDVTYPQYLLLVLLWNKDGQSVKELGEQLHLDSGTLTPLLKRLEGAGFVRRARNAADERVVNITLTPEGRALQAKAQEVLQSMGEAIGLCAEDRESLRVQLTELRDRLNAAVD

stoichiometry N [1]: 2
Molecule: OhrR (AZC_3555) of Azorhizobium caulinodans ORS571, 6×His-tagged recombinant protein (natural protein)

stoichiometry N [2]: 2
Molecule: OhrR^C121S (natural protein)

B1: ohr promoter probe (181 bp) (dsDNA)
DNA 1: CAAAGGGTTAGTTTTCCGTTGCGGAAGGTTGGGTGATGTTGACGGTGGTCTGCAAAATAAGTTTGACACAATCAAATTGTGTGCTACTTAAATGGCCATGGAAGCGGCTTGGCCGTTTCTCATCGATTTCTCAAGGCACGAGGATCAAGCGATGTCCGTCGATGTGAAGTACACCACCAAG
DNA 2: CTTGGTGGTGTACTTCACATCGACGGACATCGCTTGATCCTCGTGCCTTGAGAAATCGATGAGAAACGGCCAAGCCGCTTCCATGGCCATTTAAGTAGCACACAATTTGATTGTGTCAAACTTATTTTGCAGACCACCGTCAACATCACCCAACCTTCCGCAACGGAAAACTAACCCTTTG
binding result (OhrR): binds
